The supplement of paper PMC7125110
± gives the standard error. Fewer inactive variants are shown than the library holds.

B1: glmS ribozyme (parent)
chain: AUAAAAGCGCCAGAACUACAGAAAUGUAGUUGACGAGGAGGAGGUUUAUCGAAUUUUCGGCGGAUGCCUCCAAA

How the values were obtained:
Conditions in all cases: with glucosamine-6-phosphate
glucosamine-6-phosphate [1] = variants of: B1; assay: self-cleavage kobs at 40 uM GlcN6P; higher = faster cleavage; RNA array
Procedure, shortened: (§1)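 Glucosamine-6-phosphate, from 40 μM to 10 mM in HEPES/KCl/Mg(OAc)2 buffer, was flowed over sequenced MiSeq chips carrying barcoded ribozyme variants transcribed in situ by E. coli RNA polymerase. A hybridised Cy3 probe tracked the variants at 37 °C as tiles were imaged over ~14 h. kobs, kcat and KM were obtained by fitting normalised per-tile medians to exponential decays and then applying weighted Michaelis–Menten fits across concentrations.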

glucosamine-6-phosphate [2] = variants of: B1; assay: self-cleavage kobs at 160 uM GlcN6P; higher = faster cleavage; RNA array
Procedure, shortened: as §1

glucosamine-6-phosphate [3] = variants of: B1; assay: self-cleavage kobs at 10000 uM GlcN6P; higher = faster cleavage; RNA array
Procedure, shortened: as §1

glucosamine-6-phosphate [4] = variants of: B1; assay: self-cleavage kobs at 640 uM GlcN6P; higher = faster cleavage; RNA array
Procedure, shortened: as §1

glucosamine-6-phosphate [5] = variants of: B1; assay: self-cleavage kobs at 2500 uM GlcN6P; higher = faster cleavage; RNA array
Procedure, shortened: as §1

Row | Variant | self-cleavage kobs at 40 uM GlcN6P (glucosamine-6-phosphate [1]) [s⁻¹] | self-cleavage kobs at 160 uM GlcN6P (glucosamine-6-phosphate [2]) [s⁻¹] | self-cleavage kobs at 10000 uM GlcN6P (glucosamine-6-phosphate [3]) [s⁻¹] | self-cleavage kobs at 640 uM GlcN6P (glucosamine-6-phosphate [4]) [s⁻¹] | self-cleavage kobs at 2500 uM GlcN6P (glucosamine-6-phosphate [5]) [s⁻¹]
1 | U30A G66C C70G | < 1e-05 |  |  |  | 
2 | G32A U47C A48G C71U | < 1e-05 |  |  |  | 
3 | C16G G44U | < 1e-05 | < 1e-05 | 2.26e-05 ± 1e-05 |  | 
4 | A6C G51U U56A | < 1e-05 |  |  |  | 
5 | U30A C34U C68G | 0.000169 ± 6.6e-05 |  | 0.000202 ± 6.3e-05 | 0.000629 ± 0.00024 | 
6 | U55A C71U | 0.00109 ± 0.00019 | 0.00212 ± 0.00076 | 0.0549 ± 0.013 | 0.0121 ± 0.0034 | 0.00755 ± 0.0025
7 | G13C G29U A48U | < 1e-05 |  |  | < 1e-05 | 
8 | A12U G40U G41C | < 1e-05 |  |  |  | 
9 | U47G C70U | 0.000323 ± 3.2e-05 | 0.000641 ± 8.8e-05 |  | 0.00192 ± 0.00055 | 0.000583 ± 0.00011
10 | C10U C11U A64G U65A | < 1e-05 |  |  |  | 
11 | A39G U54G | 0.00177 ± 0.00036 | 0.00227 ± 0.00056 |  | 0.00627 ± 0.0015 | 0.0305 ± 0.013
12 | A6U G7U A15U U30G G40A | < 1e-05 |  | < 1e-05 |  | 
13 | C16U U30A U31G A53U G59U | < 1e-05 |  |  |  | < 1e-05
14 | C50G C70A | 8.32e-05 ± 1.7e-05 | 0.000173 ± 5.4e-05 | 7.91e-05 ± 1.3e-05 | 0.000163 ± 4.1e-05 | 0.000238 ± 5.8e-05
15 | G32U U46G C61U | < 1e-05 |  | < 1e-05 |  | < 1e-05
16 | A6G A36C G51A | < 1e-05 |  | < 1e-05 |  | < 1e-05
17 | C8A C68A | < 1e-05 | < 1e-05 |  | < 1e-05 | < 1e-05
18 | C10A C61A C67G | 4.33e-05 ± 1.9e-05 |  |  |  | 
19 | G37U U45G U46C G63A C68A | < 1e-05 |  | < 1e-05 |  | 
20 | G13C G59C | < 1e-05 | < 1e-05 | < 1e-05 | < 1e-05 | 
21 | A15G C50U G60A A64C | < 1e-05 |  |  |  | 
22 | G44A G62A | < 1e-05 | < 1e-05 | < 1e-05 | < 1e-05 | < 1e-05
23 | G40U G60C | < 1e-05 | < 1e-05 | < 1e-05 |  | < 1e-05
24 | C10U C58A C68A | < 1e-05 |  | < 1e-05 |  | 
25 | G43A G63U | < 1e-05 | < 1e-05 |  | < 1e-05 | 

Row | Variant | self-cleavage kobs at 40 uM GlcN6P (glucosamine-6-phosphate [1]) [s⁻¹] | self-cleavage kobs at 160 uM GlcN6P (glucosamine-6-phosphate [2]) [s⁻¹] | self-cleavage kobs at 10000 uM GlcN6P (glucosamine-6-phosphate [3]) [s⁻¹] | self-cleavage kobs at 640 uM GlcN6P (glucosamine-6-phosphate [4]) [s⁻¹] | self-cleavage kobs at 2500 uM GlcN6P (glucosamine-6-phosphate [5]) [s⁻¹]
26 | G9A C10A C11U U56G C71U | < 1e-05 |  | < 1e-05 |  | < 1e-05
27 | C11U A33C A52G C67A | < 1e-05 |  |  |  | 
28 | C61G G63A | < 1e-05 | < 1e-05 | < 1e-05 |  | 
29 | A6G G9A G44A C71A | < 1e-05 |  | < 1e-05 |  | < 1e-05
30 | C16U A42U G62A C67A | < 1e-05 |  | < 1e-05 |  | 
31 | C10G A42C U47A G59U | < 1e-05 |  |  |  | 
32 | A36C C70A | 3.5e-05 ± 1.7e-05 | 0.000113 ± 3.7e-05 |  | 6.93e-05 ± 3e-05 | 
33 | A6G C34A | < 1e-05 | < 1e-05 | < 1e-05 | < 1e-05 | < 1e-05
34 | G51C C61U G62C | < 1e-05 |  | < 1e-05 |  | 
35 | G29C A39C A48C G60A | < 1e-05 |  | < 1e-05 |  | 
36 | G35A U47C | < 1e-05 | < 1e-05 |  | < 1e-05 | < 1e-05
37 | A15G U31C | 0.000207 ± 3.4e-05 | 0.00035 ± 8.7e-05 | 0.0123 ± 0.0028 | 0.00208 ± 0.00026 | 0.00542 ± 0.0013
38 | A14U G41A G44A G60A | < 1e-05 |  |  |  | 
39 | U46A U69A | < 1e-05 |  | 9.26e-05 ± 1.9e-05 | 5.02e-05 ± 2e-05 | 0.00022 ± 6.2e-05
40 | C10A G40U G41A C70A | < 1e-05 |  | < 1e-05 |  | 
41 | G7U A12C G29C | < 1e-05 | < 1e-05 |  | < 1e-05 | < 1e-05
42 | A18G C70A | 4.53e-05 ± 2.1e-05 |  | 0.000432 ± 0.00014 |  | 
43 | C34A G37U G44U | < 1e-05 |  |  |  | 
44 | C11G U31A | < 1e-05 | < 1e-05 |  | < 1e-05 | 
45 | G13C G38A C58U | < 1e-05 |  |  |  | 
46 | G40C C50U C58A C71G | < 1e-05 |  | < 1e-05 |  | 
47 | A12G A15C G35U C71U | < 1e-05 | < 1e-05 |  |  | 
48 | A6G G32C C34G C71U | < 1e-05 | < 1e-05 |  | < 1e-05 | 
49 | A48G C50G C61A | 9.98e-05 ± 2.4e-05 |  | 6.27e-05 ± 1.9e-05 |  | 
50 | A15C G40A U49G C71U | < 1e-05 |  | 4.71e-05 ± 1.3e-05 |  | 
